According to paper PMC3905896 (Nucleic Acids Research, 2013):

T1: PtxS (assayed together with PtxR at Pgad) (Pseudomonas aeruginosa, UniProt G3XD97)
T1 sequence (G3XD97 1-340): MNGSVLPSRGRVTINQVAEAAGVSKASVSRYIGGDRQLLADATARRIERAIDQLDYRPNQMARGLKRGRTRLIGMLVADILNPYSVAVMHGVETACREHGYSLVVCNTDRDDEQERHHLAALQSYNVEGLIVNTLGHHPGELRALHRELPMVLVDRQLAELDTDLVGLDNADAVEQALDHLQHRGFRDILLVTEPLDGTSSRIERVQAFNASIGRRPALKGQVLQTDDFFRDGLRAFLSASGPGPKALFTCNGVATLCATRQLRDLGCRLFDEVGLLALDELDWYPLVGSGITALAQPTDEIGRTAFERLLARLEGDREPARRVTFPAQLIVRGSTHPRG

T2: PtxR (Pseudomonas aeruginosa, UniProt P72131 1-312)
T2 sequence (looked up): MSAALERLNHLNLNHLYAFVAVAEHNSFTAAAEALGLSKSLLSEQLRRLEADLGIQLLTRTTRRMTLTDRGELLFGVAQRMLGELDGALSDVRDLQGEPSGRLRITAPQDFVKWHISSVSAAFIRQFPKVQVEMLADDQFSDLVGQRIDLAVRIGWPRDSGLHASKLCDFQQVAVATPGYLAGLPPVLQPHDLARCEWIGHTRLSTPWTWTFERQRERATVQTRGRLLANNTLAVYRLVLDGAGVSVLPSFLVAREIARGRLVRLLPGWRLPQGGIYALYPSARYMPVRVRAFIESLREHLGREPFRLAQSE


Key:
[1] = target: T1, PtxS (assayed together with PtxR at Pgad); format: biochemical
[2] = target: T2, PtxR; experiment: ITC

Molecule	EC50 [1]	KD of the first binding event [2]	KD of the second binding event [2]	dH of the first binding event [2]	dH of the second binding event [2]
O=C(O)C(=O)[C@@H](O)[C@H](O)[C@H](O)CO [2-ketogluconate]	78000 nM	–	–	–	–
PtxS (natural protein, Pseudomonas aeruginosa, UniProt G3XD97 1-340, looked up) MNGSVLPSRGRVTINQVAEAAGVSKASVSRYIGGDRQLLADATARRIERAIDQLDYRPNQMARGLKRGRTRLIGMLVADILNPYSVAVMHGVETACREHGYSLVVCNTDRDDEQERHHLAALQSYNVEGLIVNTLGHHPGELRALHRELPMVLVDRQLAELDTDLVGLDNADAVEQALDHLQHRGFRDILLVTEPLDGTSSRIERVQAFNASIGRRPALKGQVLQTDDFFRDGLRAFLSASGPGPKALFTCNGVATLCATRQLRDLGCRLFDEVGLLALDELDWYPLVGSGITALAQPTDEIGRTAFERLLARLEGDREPARRVTFPAQLIVRGSTHPRG	–	12 ± 2 nM	99 ± 8 nM	-27.3 ± 0.7 kcal/mol	-13 ± 0.8 kcal/mol
